Results from patent US20210253725A1 (BIONTECH, published 2021).

Legend:
[1] = target: T1, CD27 expressed on the cell surface (HT1080_CD27 cells) (human, UniProt P26842 20-260); test: cell-based or functional assay
T1 sequence (looked up): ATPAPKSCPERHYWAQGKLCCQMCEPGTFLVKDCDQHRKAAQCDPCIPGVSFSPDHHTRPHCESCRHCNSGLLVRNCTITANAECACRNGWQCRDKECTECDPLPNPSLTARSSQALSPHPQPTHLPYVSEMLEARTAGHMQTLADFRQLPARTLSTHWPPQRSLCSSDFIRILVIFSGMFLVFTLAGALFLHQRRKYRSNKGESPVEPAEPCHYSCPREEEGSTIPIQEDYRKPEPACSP

[2] = target: T2, CD27 protein (His-tagged, Sino Biological Inc. 10039-H08B1) (human, UniProt P26842 20-192); test: ELISA on coated His-tagged CD27
T2 construct: bought; coated onto ELISA plates; also called human CD27; recombinant protein; not shown: His tag
T2 sequence (looked up): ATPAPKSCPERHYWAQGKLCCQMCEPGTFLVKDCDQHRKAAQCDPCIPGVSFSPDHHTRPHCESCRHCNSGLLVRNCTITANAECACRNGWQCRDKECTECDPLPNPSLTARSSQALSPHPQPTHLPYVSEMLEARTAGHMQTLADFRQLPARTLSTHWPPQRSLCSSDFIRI

[3] = target: T1, CD27 expressed on the cell surface …; test: cellular binding assay, HT1080_CD27 cells
Note: test concentration or dose not given here.

Row | Binder | IL-8, cross-linked by F(ab')2 fragment [abs. corr.] [1] | IL-8 [abs. corr.] [1] | ELISA [abs. corr.] [2] | Cellular binding assay [RFU] [3]
1 | P018.S.10.A.B06 (antibody, V domains shown, V regions on human Ig constant parts; also called AB27_169) VH: QSVEESGGRLVTPGTPLTLTCTVSGFSLSSSHMCWVRQAPGKGLEWIGVINIGDIAYYASWAKGRFTISKTSTTVDLKMTSLTAADTATYFCARENAYGTGWDFDLWGQGTLVTVSS VL: AYDMTQTPASVEVAVGGTVTIKCQASESIRNALAWYQQKPGQPPKQLIYSASTLASGVPSRFKGSGSGTEFTLTISGVQSDDAATYYCQQGFSLRNVDNAFGGGTEVVVK | 1.46 abs. corr. | 0.455 abs. corr. | 3.25 abs. corr. | 308 RFU
2 | P018.S.04.A.A05 (antibody, V domains shown, V regions on human Ig constant parts; also called AB27_65) VH: QSLEESGGRLVTPGTPLTLTCTASGFTISSYEMGWVRQAPGEGLEYIGWIASGGSTFYASWAKGRFTISRTSTTVDLTITDLRPSDTGTYFCARGYVEFKLWGPGTLVTVSS VL: DIVMTQTPASVSESVGGTVTIKCQASQSIGSYLSWYQQKPGQPPKVLIYRASTLESGVPSRFEGSGSGTQFTLTISDLESADAATYYCQGYHSTSGYVAFGGGTELVVK | 2.24 abs. corr. | 1.67 abs. corr. | 3.29 abs. corr. | 206 RFU
3 | P018.S.04.A.B03 (antibody, V domains shown, V regions on human Ig constant parts; also called AB27_67) VH: QSLEESGGRLVTPGTPLTLTCTASGFSLSSYDMSWVRQAPGKGLEWIGYIWSDGDTDYANWAIGRFTISKTSTTVDLKMTSPTTEDTATYFCARGYTNYDLWGQGTLVTVSS VL: AAVLTQTPSSVSAAVGGTVTISCQSSQSLYSDPYLSWHQQKPGQPPKRLIYQASTLASGVSSRFKGSGSGTEYTLTISDVQSDDAATYFCQGTYYSDGWYSDFGGGTEVVVK | 1.97 abs. corr. | 0.394 abs. corr. | 3.28 abs. corr. | 338 RFU
4 | P018.S.01.A.E04 (antibody, V domains shown, V regions on human Ig constant parts; also called AB27_16) VH: QEQLKESGGGLVTPGGTLTLTCTASGSDISNYGVSWVRQAPGKGLEWIGFINADGGGTWYASWVKGRFTISRTSTTVELKMTSLTTEHTATYFCATYGGGGGHNLWGPGTLVTVSS VL: AQVLTQTPSSVSAAVGGTVTINCQSSQSVYDNNALAWYQQKPGQPPKLLLYSASRLASGVPSRFKGSGSGTQFTLTISDLESDDAATYYCAAYYGSGDIFAFGGGTEVVVE | 1.15 abs. corr. | 0.264 abs. corr. | 3.28 abs. corr. | 295 RFU
5 | P018.S.03.A.E04 (antibody, V domains shown, V regions on human Ig constant parts; also called AB27_52) VH: QEQLKESGGGLVTPGGTLTLTCTVSGIDLSSYAISWVRQAPGKGLEWIGYIYVGSTTTWYASWVKGRSTISKTSSTTVDLKMTSLTTEDTATYFCARAYDSGYIGNSFYIFHPWGPGTLVTVSS VL: DIVMTQTPASVSATVGGTVTIKCQASQTISSRLAWYQQKPGQPPKLLIYSASTLASGVSSRFKGSGSGTEFTLTISDLESADGATYYCAGYGGLGITAFGGGTEVVVK | 1.19 abs. corr. | 0.2 abs. corr. | 3.29 abs. corr. | 356 RFU
6 | P018.S.09.A.D05 (antibody, V domains shown, V regions on human Ig constant parts; also called AB27_152) VH: QSLEESGGRLVTPGGSLTLTCTVSGIDLSSYAMDWVRQAPGKGLEWIGVIGAGGSTYYASWANGRFTISKTSTTVDLKISSPTTEDTATYFCARDIGGDYSSRYYFSLWGPGTLVTVSS VL: DIVMTQTPASVEAAVGGTVTIKCQASQSTSTALAWYQQKPGQRPKLLIYDSSKLASGVPSRFSGSGSGTEFTLTISGVQSDDAASYYCQQGYNINNVAFGGGTEVVVK | 2.11 abs. corr. | 0.187 abs. corr. | 3.28 abs. corr. | 400 RFU
7 | P018.S.07.A.E03 (antibody, V domains shown, V regions on human Ig constant parts; also called AB27_125) VH: QSLEESGGRLVTPGTPLTLTCTVSGIDLSSYAMGWVRQAPGKGLELIGLIYASDRTHYATWAKGRFTISKSSTTVDLKATSLTTEDTATYFCGRYGRGSGGYYYGMDLWGPGTLVTVSS VL: DVVMTQTPASVEAAVGGTVTIKCQASQSGDNYLSWYQQKSGQPPKLLIYLASTLASGVPSRFRGSRSGTEYTLTISDLESADAATYYCQNYCAGSGVCVGVAFGGGTEVVVK | 1.51 abs. corr. | 0.123 abs. corr. | 3.28 abs. corr. | 227 RFU

The remaining lines, values ahead:

Row | IL-8, cross-linked by F(ab')2 fragment [abs. corr.] [1] | IL-8 [abs. corr.] [1] | ELISA [abs. corr.] [2] | Cellular binding assay [RFU] [3] | Binder
8 | 2.25 abs. corr. | 0.464 abs. corr. | 3.53 abs. corr. | 319 RFU | P018.S.09.A.C03 (antibody, V domains shown, V regions on human Ig constant parts; also called AB27_148) VH: QSVEESGGRLVTPGTPLTLTCTVSGFSLSSYGMIWVRQAPGKGLEWIGWISSNDNKYYARWAKGRFTISKTSTTVDLKMTSLTTEDTATYFCVRNGVYNTGNYFDLWGQGTLVTVSS VL: AQVLTQTPSSVSAAVGGTVTINCQASQSLYNNKNLAWYQQKPGQPPKFLIYTASSLASGVSSRFKGSGSGTQFTLTISDVQSDDAATYYCQGEFDCDSDDCFAFGGGTEVVVK
9 | 1.79 abs. corr. | 0.325 abs. corr. | 3.3 abs. corr. | 369 RFU | P018.S.01.A.C06 (antibody, V domains shown, V regions on human Ig constant parts; also called AB27_10) VH: QSVEESGGRLVTPGTPLTLTCTVSGIDLNNYVMGWVRQAPGKGLEWIGIINTAGSTYYANWAKGRFTISKTSTTVDLKITSPTTEDTATYFCARDSSYYIGYYFNLWGPGTLVTVSS VL: QIVMTQTPASVEVAVGGTVTIKCQASQSIGSNLAWYQQKPGQPPKLLIYDASDLESGVPSRFKGSGSGAQFTLTISDLESADAATYYCQQGYSATTNVDNAFGGGTEVVVK
10 | 1.54 abs. corr. | 0.099 abs. corr. | 3.27 abs. corr. | 334 RFU | P018.S.09.A.E03 (antibody, V domains shown, V regions on human Ig constant parts; also called AB27_154) VH: QSVEESGGRLVTPGTPLTLTCTASGFSLSSYYMGWVRQAPGKGLEWIGFITSGGSGSTYYASWAKGRFTISKTSTTVDLKMTSLTTEDTATYFCARYGDSFYWALDLWGQGTLVTVSS VL: AQVLTQTPSSVSAAVGGTVTINCQSSQSVLNNDLSWYQQKPGQPPKLLIYAASTLASGVPSRFKGSGSGTQFTLTINVGQSDDAATYYCQGYFIDVNNPFGGGTEVVVK
11 | 2.02 abs. corr. | 0.735 abs. corr. | 3.13 abs. corr. | 380 RFU | P018.S.07.A.C02 (antibody, V domains shown, V regions on human Ig constant parts; also called AB27_119) VH: QSVEESGGRLVTPGTPLTLTCTASGFSLSSYHMCWVRQAPGKGLEWIGIIYAGSGNTWYASWAKGRFTISKTSTTVDLKITSPTTEDTATYFCARQPGGGASDTQLDLWGQGTLVTVSS VL: AAVLTQTPSPVSAAVGGTVTINCQSSQSVFDNNQLSWFQHKPGQSPKLLIYRASTLASGVPSRFKGSGSGTQFTLTISDLESDDAATYYCLGGYSSSSDTVFGGGTEVVVE
12 | 1.37 abs. corr. | 0.569 abs. corr. | 3.27 abs. corr. | 390 RFU | P018.S.02.A.D04 (antibody, V domains shown, V regions on human Ig constant parts; also called AB27_33) VH: QEQLVESGGGLVQPEGSLTLTCTASALSFYSAWICWVRQAPGKGLKWIACIYAGGSRSTYYATWATGRFTISEASSTTVTLQMTSLTAADTATYFCARSLSADTYWNLWGPGTLVTVSS VL: DVVMTQTPASVEAAVGGTVTIKCQASESISSWLAWYQQKPGQPPKLLIYRASTLESGVPSRFKGSGSGTEFTLTISDLESADAATYYCQNNGGGTSGYTFGGGTEVVVK
13 | 1.91 abs. corr. | 0.526 abs. corr. | 3.29 abs. corr. | 472 RFU | P018.S.05.A.F02 (antibody, V domains shown, V regions on human Ig constant parts; also called AB27_91) VH: QSVEESGGRLVTPGTPLTLTCTVSGFSLNNYGITWVRQAPGKGLEYIGYINYGGIAYYASWVNGRFTISKTSTTVDLKMTSLTAADTATYFCARGYGYYSAGNLWGQGTLVTVSS VL: AQVLTQTPSPVSAAVGGTVTINCQASQSVYDNNYLSWYQQKPGQPPKRLIYDASSLASGVPSRFSGSGSGTQFTLTISGVQSDDAATYYCAGEYSCLSDDCIAFGGGTEVVVK
14 | 2.06 abs. corr. | 0.262 abs. corr. | 3.28 abs. corr. | 215 RFU | P018.S.10.A.E06 (antibody, V domains shown, V regions on human Ig constant parts; also called AB27_178) VH: QSLEESGGRLVTPGTPLTLTCTVSGIDLSDYAMAWVRQAPGKGLEYIGFINIGGISSVANWAIGRFTISKSSTTVDLKITSPTTEDTATYFCAREGYTTGGGGPYYGMDLWGPGTLVTVSS VL: DIVMTQTPASVSEPMGGTVTIKCQASQSIHSWLSWYQQKPGQPPKRLIYTASTLASGVPSRFKGSGSGTEYTLTISDLESADAATYYCQRNSYSDFNNYVFGGGTEVVVK
15 | 1.06 abs. corr. | 0.444 abs. corr. | 3.28 abs. corr. | 394 RFU | P018.S.06.A.D04 (antibody, V domains shown, V regions on human Ig constant parts; also called AB27_103) VH: QSLEESGGRLVKPDETLTLTCTVSGFDLSSYAVVWVRQAPGKGLEWIGYIYGGSGSTWYASWAKGRFTISKTSSTTVDLKMTSLTTEDTATYFCARAYDSGYIGNSFYAFDPWGPGTLVTVSS VL: DIVMTQTPASVSAAVGGTVTIKCQASQTISSTLAWYQQKPGQPPKLLIYSASTLASGVSSRFKGSGSGPEFTLTISDLESADGGTYTCAGYGTVGVTAFGGGTEVVVR
16 | 1.04 abs. corr. | 0.408 abs. corr. | 3.29 abs. corr. | 336 RFU | P018.S.07.A.C06 (antibody, V domains shown, V regions on human Ig constant parts; also called AB27_121) VH: QSVEESGGRLVTPGTPLTLTCTVSGFSLNHYHMCWVRQAPGKGLEYIGRIDNSGYIVYASWAKGRFTISKTSTTVDLKITSPTTADTATYFCGKYYSGGSYDLWGQGTLVTVSS VL: AQVLTQTASSVSAAVGGTVTISCQSSQSVWNNNWLAWYQQKPGQPPKLLIYETSKLASGVPSRFKGSGSGTQFTLTISGVQSDDAATYYCQGEFSCSSDDCNAFGGGTEVVVK
